Measurements published in IntAct's records for PubMed 18524952.

B1: DNA replication licensing factor MCM3 (Mus musculus), P25206 (parent)
chain: MAGTVVLDDVELREAQRDYLDFLDDEEDQGIYQNKVRELISDNQYRLIVSVNDLRRKNEKRANRLLNNAFEELVAFQRALKDFVASIDATYAKQYEEFYIGLEGSFGSKHVSPRTLTSCFLSCVVCVEGIVTKCSLVRPKVVRSVHYCPATKKTIERRYSDLTTLVAFPSSSVYPTKDEENNPLETEYGLSVYKDHQTITIQEMPEKAPAGQLPRSVDVILDDDLVDKVKPGDRIQVVGTYRCLPGKKGCYTSGTFRTVLIACNVKQMSKDIQPAFSADDIAKIKKFSKTRSKDVFEQLARSLAPSIHGHDYVKKAILCLLLGGVERELENGSHIRGDINILLIGDPSVAKSQLLRYVLCTAPRAIPTTGRGSSGVGLTAAVTTDQETGERRLEAGAMVLADRGVVCIDEFDKMSDMDRTAIHEVMEQGRVTIAKAGIHARLNARCSVLAAANPVYGRYDQYKTPMENIGLQDSLLSRFDLLFIMLDQMDPEQDREISDHVLRMHQYRAPGEQDGDALPLGSSVDILATDDPDFTQDDQQDTRIYEKHDSLLHGTKKKKEKMVSAAFMKKYIHVAKIIKPTLTQESAAYIAEEYSRLRSQDSMSSDTARTSPVTARTLETLIRLATAHAKARMSKTVDLQDAEEAVELVQYAYFKKVLEKEKKRKKASEDESDLEDEEEKSQEDTEQKRKRRKTHAKDGESYDPYDFSEAETQMPQVHTPKTDDSQEKTDDSQETQDSQKVELSEPRLKAFKAALLEVFQEAHEQSVGMLHLTESINRNREEPFSSEEIQACLSRMQDDNQVMVSEGIVFLI
partner: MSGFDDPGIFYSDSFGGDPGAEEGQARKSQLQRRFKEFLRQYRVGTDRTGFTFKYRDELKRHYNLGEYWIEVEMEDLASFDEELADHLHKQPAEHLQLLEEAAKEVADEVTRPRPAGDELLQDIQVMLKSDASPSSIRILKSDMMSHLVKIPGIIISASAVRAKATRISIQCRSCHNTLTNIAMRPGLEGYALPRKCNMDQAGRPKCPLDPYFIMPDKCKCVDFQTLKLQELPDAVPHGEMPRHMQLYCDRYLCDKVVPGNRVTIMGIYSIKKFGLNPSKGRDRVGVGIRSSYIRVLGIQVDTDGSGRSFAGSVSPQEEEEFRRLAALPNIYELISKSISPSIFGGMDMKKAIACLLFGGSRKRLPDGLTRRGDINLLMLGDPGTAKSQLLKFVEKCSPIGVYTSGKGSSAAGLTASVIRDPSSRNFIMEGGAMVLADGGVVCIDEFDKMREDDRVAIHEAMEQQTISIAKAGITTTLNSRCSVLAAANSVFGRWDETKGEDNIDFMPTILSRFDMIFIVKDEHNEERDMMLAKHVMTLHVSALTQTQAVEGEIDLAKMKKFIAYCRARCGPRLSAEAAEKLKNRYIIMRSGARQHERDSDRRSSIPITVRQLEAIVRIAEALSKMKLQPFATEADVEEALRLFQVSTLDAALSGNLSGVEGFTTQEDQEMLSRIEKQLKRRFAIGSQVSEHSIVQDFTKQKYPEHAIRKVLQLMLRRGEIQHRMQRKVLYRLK
B2: DNA replication licensing factor MCM3 (Mus musculus), P25206 (parent)
chain: B1 chain

Variants of: B1
Details: with mcm5_mouse Mcm5, P49718

effect of a mutation on the interaction | Variant
disrupting interaction | S112A;T464A;S611A;T719A
decreasing interaction | S112A;T719A
decreasing interaction | S112A;S611A
decreasing interaction | S112A

Variants of: B2
Details: with mcm2_mouse Mcm2, P97310
mcm2_mouse Mcm2, P97310, sequence (P97310 whole entry): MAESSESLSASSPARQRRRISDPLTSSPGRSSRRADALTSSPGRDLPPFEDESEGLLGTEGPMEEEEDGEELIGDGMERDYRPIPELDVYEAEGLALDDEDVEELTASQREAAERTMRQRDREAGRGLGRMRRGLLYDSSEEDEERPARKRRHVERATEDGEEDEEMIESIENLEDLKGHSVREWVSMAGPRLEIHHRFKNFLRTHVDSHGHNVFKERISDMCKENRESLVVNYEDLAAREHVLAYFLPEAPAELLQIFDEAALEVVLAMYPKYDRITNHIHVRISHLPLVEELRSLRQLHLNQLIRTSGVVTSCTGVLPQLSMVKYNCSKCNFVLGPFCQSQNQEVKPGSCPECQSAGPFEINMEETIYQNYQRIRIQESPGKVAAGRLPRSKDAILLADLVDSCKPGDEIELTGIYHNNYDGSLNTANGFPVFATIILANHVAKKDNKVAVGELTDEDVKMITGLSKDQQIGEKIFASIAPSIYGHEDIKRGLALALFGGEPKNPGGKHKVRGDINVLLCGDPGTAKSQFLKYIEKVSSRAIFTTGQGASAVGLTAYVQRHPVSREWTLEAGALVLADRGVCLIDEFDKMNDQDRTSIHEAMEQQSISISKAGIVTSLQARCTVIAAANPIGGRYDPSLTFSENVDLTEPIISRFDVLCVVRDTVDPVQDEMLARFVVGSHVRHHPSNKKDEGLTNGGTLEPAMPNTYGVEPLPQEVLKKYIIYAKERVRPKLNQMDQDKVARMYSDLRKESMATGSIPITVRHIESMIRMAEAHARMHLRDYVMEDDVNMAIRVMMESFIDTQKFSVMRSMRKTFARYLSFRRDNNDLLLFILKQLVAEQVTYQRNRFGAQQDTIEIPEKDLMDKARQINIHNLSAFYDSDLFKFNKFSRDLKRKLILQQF

effect of a mutation on the interaction | Variant
disrupting interaction | S112A

Variants of: B2
Details: with mcm7_mouse Mcm7, Q61881
mcm7_mouse Mcm7, Q61881, sequence (Q61881 whole entry): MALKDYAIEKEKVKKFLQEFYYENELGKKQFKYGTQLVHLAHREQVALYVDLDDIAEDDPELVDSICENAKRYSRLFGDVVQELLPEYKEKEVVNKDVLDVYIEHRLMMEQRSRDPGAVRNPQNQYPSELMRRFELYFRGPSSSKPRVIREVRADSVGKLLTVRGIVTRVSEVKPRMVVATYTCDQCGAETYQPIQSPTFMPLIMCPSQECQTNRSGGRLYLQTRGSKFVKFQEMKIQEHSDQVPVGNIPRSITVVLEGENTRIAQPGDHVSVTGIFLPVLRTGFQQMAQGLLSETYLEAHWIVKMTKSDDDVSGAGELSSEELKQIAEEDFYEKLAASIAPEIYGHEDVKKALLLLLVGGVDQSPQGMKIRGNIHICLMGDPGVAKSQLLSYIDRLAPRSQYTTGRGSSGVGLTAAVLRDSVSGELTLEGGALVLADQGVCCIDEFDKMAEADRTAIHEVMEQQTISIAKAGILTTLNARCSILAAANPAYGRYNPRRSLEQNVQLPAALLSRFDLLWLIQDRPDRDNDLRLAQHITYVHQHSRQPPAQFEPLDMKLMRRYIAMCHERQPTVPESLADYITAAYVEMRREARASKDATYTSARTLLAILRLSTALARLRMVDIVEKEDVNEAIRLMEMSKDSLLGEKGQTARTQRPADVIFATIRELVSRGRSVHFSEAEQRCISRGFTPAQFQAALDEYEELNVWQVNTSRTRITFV

effect of a mutation on the interaction | Variant
disrupting interaction | S112A
